From the supplement of paper PMC6757056
± gives the standard deviation of the averaged measurements.

B1: library; a variant is named by its letters at N, in order (parent)
chain: GCUGUCACCGGUGCUUGGUACGUUAUAUUCAGCCGGUCUGAUGAGUCUNNNNNNAGACGAAACAGC

What was measured:
(6R,S)-folinic acid [1] = variants of: B1; assay: normalized RNA/DNA level without ligand (relative to sTRSVctl = 100) (log10 (% of sTRSVctl)); HEK293T overexpressing SLC46A1; higher = less ribozyme self-cleavage, higher mRNA level; settings: without (6R,S)-folinic acid; ligand present: no
How it was run: (§1)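 Library plasmids encoding reporter-linked ribozyme switches (mCherry, or eGFP for some folinic acid experiments) were transfected into HEK293T at 4 µg per 6-well well. Ligand, when used, was added 1 h before transfection. Total RNA was extracted with EDTA 72 h later, then reverse-transcribed, amplified, barcoded and sequenced. RNA level was RNA reads over DNA reads, divided by a spiked-in non-cleaving control (or the top 25 sequences), ×100, log10; only sequences with ≥100 DNA reads were kept.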

(6R,S)-folinic acid [2] = variants of: B1; assay: normalized RNA/DNA level with ligand (relative to sTRSVctl = 100) (log10 (% of sTRSVctl)); HEK293T overexpressing SLC46A1; ligand concentration (+) RNA-Seq: 6 mM; higher = less ribozyme self-cleavage, higher mRNA level; settings: with (6R,S)-folinic acid; ligand present: yes
How it was run: as §1

| Variant | normalized RNA/DNA level without ligand (log10) ((6R,S)-folinic acid [1]) | normalized RNA/DNA level with ligand (log10) ((6R,S)-folinic acid [2]) |
| --- | --- | --- |
| GCUGAC | 1.986 ± 0.0051 | 2.01 ± 0.045 |
| GCGUGU | 1.974 ± 0.0053 | 2.04 ± 0.053 |
| GCUGUG | 2.03 ± 0.028 | 2.04 ± 0.055 |
| GCUGUC | 2.0466 ± 0.00088 | 2.02 ± 0.026 |
| GCUGUA | 2.019 ± 0.018 | 2.04 ± 0.033 |
| ACUGUA | 1.9633 ± 7.1e-05 | 2.026 ± 0.014 |
| ACUGUC | 2.08 ± 0.024 | 2.04 ± 0.059 |
| ACUGUU | 2 ± 0.02 | 2.01 ± 0.037 |
| CCUCGU | 2.01 ± 0.037 | 2.01 ± 0.07 |
| CCUCGG | 2.078 ± 0.0042 | 1.99 ± 0.012 |
| CCUCGA | 1.998 ± 0.011 | 2.02 ± 0.029 |
| CCUCGC | 2.08 ± 0.03 | 2.033 ± 0.017 |
| UCUGAG | 1.745 ± 0.011 | 1.98 ± 0.03 |
| UCUGAC | 2.011 ± 0.0043 | 2.01 ± 0.052 |
| UCUGAU | 1.973 ± 0.008 | 2 ± 0.046 |
| UCUGAA | 1.911 ± 0.0014 | 1.98 ± 0.05 |
| ACUCGA | 1.994 ± 0.019 | 2.03 ± 0.025 |
| ACUCGU | 2.028 ± 0.016 | 1.983 ± 0.016 |
| ACUCGG | 1.979 ± 0.013 | 2.02 ± 0.024 |
| ACUCGC | 2.034 ± 0.012 | 2.01 ± 0.041 |
| GCUAAC | 1.975 ± 0.015 | 2.015 ± 0.007 |
| GCUAAG | 1.968 ± 0.003 | 2.024 ± 0.016 |
| GCUAAA | 1.992 ± 0.009 | 2.02 ± 0.028 |
| CCUGCC | 2.058 ± 0.0075 | 2 ± 0.068 |

| Variant | normalized RNA/DNA level without ligand (log10) ((6R,S)-folinic acid [1]) | normalized RNA/DNA level with ligand (log10) ((6R,S)-folinic acid [2]) |
| --- | --- | --- |
| CCUGCA | 2.047 ± 0.0035 | 2.059 ± 0.0067 |
| CCUGCG | 2.01 ± 0.016 | 2.033 ± 0.02 |
| GCUUAU | 1.942 ± 0.015 | 2.003 ± 0.006 |
| GCUUAG | 1.9687 ± 0.00031 | 2.015 ± 0.013 |
| CCUACG | 2.072 ± 0.0081 | 2.0351 ± 0.0014 |
| CCUACU | 2.062 ± 0.0069 | 2.04 ± 0.0079 |
| CCUACC | 2.0594 ± 0.00016 | 2.04 ± 0.041 |
| GCUUCU | 2.0037 ± 0.0006 | 2.01 ± 0.048 |
| GCUUCC | 2.029 ± 0.0087 | 2.04 ± 0.034 |
| GCUUCG | 2.024 ± 0.015 | 2.02 ± 0.025 |
| GCUACG | 2.026 ± 0.0068 | 2.065 ± 0.0045 |
| GCUACU | 2.019 ± 0.0099 | 1.98 ± 0.043 |
| GCUACC | 2.06 ± 0.023 | 2.05 ± 0.033 |
| ACUUGC | 2.036 ± 0.0029 | 2.03 ± 0.03 |
| ACUUGU | 2.062 ± 0.011 | 2.064 ± 0.013 |
| ACUUGA | 1.9759 ± 0.0013 | 2.03 ± 0.041 |
| UCGUGG | 1.947 ± 0.0075 | 2.02 ± 0.041 |
| UCGUGU | 1.998 ± 0.0023 | 2.029 ± 0.0088 |
| GCUCUA | 2.01 ± 0.024 | 2.03 ± 0.018 |
| GCUCUU | 2.038 ± 0.014 | 1.998 ± 0.011 |
| GCUCUC | 2.126 ± 0.0057 | 2.08 ± 0.039 |
| GCUCCA | 2.02 ± 0.019 | 2.03 ± 0.037 |
| GCUCCG | 2.027 ± 0.0072 | 2.05 ± 0.055 |
| GCUCCC | 2.06 ± 0.031 | 2.06 ± 0.036 |

| Variant | normalized RNA/DNA level without ligand (log10) ((6R,S)-folinic acid [1]) | normalized RNA/DNA level with ligand (log10) ((6R,S)-folinic acid [2]) |
| --- | --- | --- |
| GCUCCU | 2.09 ± 0.024 | 2.07 ± 0.04 |
| CCUUCU | 2.01 ± 0.024 | 2.02 ± 0.041 |
| CCUUCG | 2.017 ± 0.019 | 2.045 ± 0.012 |
| CCUUCC | 2.067 ± 0.019 | 2.01 ± 0.024 |
| CCUUCA | 2.07 ± 0.021 | 2.04 ± 0.079 |
| UCUAAC | 2.013 ± 0.0071 | 2.031 ± 0.018 |
| UCUAAG | 1.815 ± 0.014 | 2 ± 0.045 |
| UCUAAU | 1.974 ± 0.0063 | 2.005 ± 0.0055 |
| CCUAGU | 2.074 ± 0.0064 | 2.06 ± 0.029 |
| CCUAGG | 2.05 ± 0.03 | 2.043 ± 0.0025 |
| CCUAGA | 2.05 ± 0.016 | 2.05 ± 0.046 |
| UCUAUA | 2 ± 0.032 | 2.04 ± 0.025 |
| UCUAUC | 2.07 ± 0.024 | 2.062 ± 0.0087 |
| UCUAUG | 1.832 ± 0.017 | 2.022 ± 0.0024 |
| UCUAUU | 2.048 ± 0.0024 | 2.046 ± 0.0024 |
| GCUCAG | 1.96 ± 0.0025 | 2.02 ± 0.03 |
| UCUUAU | 2 ± 0.028 | 2 ± 0.013 |
| UCUUAA | 1.962 ± 0.011 | 2.002 ± 0.0044 |
| UCUUAC | 2.003 ± 0.0077 | 1.998 ± 0.0031 |
| UCGUUA | 2.009 ± 0.0058 | 2.04 ± 0.038 |
| UCGUUU | 1.99 ± 0.03 | 2.028 ± 0.0051 |
| UCGUUC | 2.0303 ± 0.002 | 2.01 ± 0.034 |
| CCUUUC | 2.062 ± 0.0044 | 2.01 ± 0.053 |
| CCUUUU | 2.031 ± 0.0026 | 2 ± 0.027 |

| Variant | normalized RNA/DNA level without ligand (log10) ((6R,S)-folinic acid [1]) | normalized RNA/DNA level with ligand (log10) ((6R,S)-folinic acid [2]) |
| --- | --- | --- |
| CCUUUG | 2.039 ± 0.017 | 2.01 ± 0.067 |
| ACUAAU | 1.985 ± 0.007 | 2.01 ± 0.03 |
| ACUAGU | 2.02 ± 0.02 | 2.05 ± 0.026 |
| ACUAGC | 2 ± 0.011 | 2.02 ± 0.025 |
| ACUAGG | 1.912 ± 0.015 | 1.99 ± 0.038 |
| ACUAGA | 1.969 ± 0.014 | 2.01 ± 0.039 |
| ACUGGU | 1.952 ± 0.016 | 2 ± 0.07 |
| ACUGGC | 2.045 ± 0.016 | 2.005 ± 0.016 |
| ACUGGA | 1.943 ± 0.0043 | 2 ± 0.058 |
| UCUACG | 1.891 ± 0.0021 | 2.01 ± 0.017 |
| UCUACA | 2.057 ± 0.0079 | 2.0488 ± 0.002 |
| UCUACU | 2.019 ± 0.0065 | 2.03 ± 0.029 |
| UCUACC | 2.0547 ± 0.001 | 2.054 ± 0.018 |
| CCUAUC | 2.1 ± 0.023 | 2.0649 ± 0.0011 |
| CCUAUG | 2.04 ± 0.031 | 2.06 ± 0.028 |
| CCUAUU | 2.038 ± 0.0071 | 2.04 ± 0.022 |
| CCUAUA | 2.029 ± 0.0081 | 2.01 ± 0.033 |
| CCUGAC | 2 ± 0.0059 | 1.993 ± 0.0097 |
| CCUGAA | 2.0009 ± 0.0006 | 2 ± 0.044 |
| CCUGAG | 1.932 ± 0.019 | 1.97 ± 0.025 |
| CCUUGU | 2.01 ± 0.04 | 2.005 ± 0.013 |
| CCUUGG | 2.047 ± 0.016 | 2.01 ± 0.022 |
| CCUUGC | 2.004 ± 0.0087 | 2.05 ± 0.039 |
| CCUUGA | 2.017 ± 0.0066 | 2.03 ± 0.027 |

| Variant | normalized RNA/DNA level without ligand (log10) ((6R,S)-folinic acid [1]) | normalized RNA/DNA level with ligand (log10) ((6R,S)-folinic acid [2]) |
| --- | --- | --- |
| ACGUUG | 1.936 ± 0.0063 | 2.03 ± 0.043 |
| ACGUUC | 2.07 ± 0.022 | 2.02 ± 0.037 |
| GCUGCA | 2.01 ± 0.022 | 2.03 ± 0.047 |
| GCUGCU | 2.04 ± 0.027 | 2.055 ± 0.018 |
| GCUGCG | 2.002 ± 0.0047 | 2.05 ± 0.029 |
| CCUAAA | 1.9908 ± 0.0014 | 2.01 ± 0.028 |
| CCUAAC | 2.041 ± 0.0058 | 2.038 ± 0.017 |
| ACUCCC | 2.054 ± 0.0096 | 2.02 ± 0.048 |
| ACUCCU | 2.075 ± 0.0094 | 2.08 ± 0.05 |
| ACUCCG | 2.001 ± 0.014 | 2.03 ± 0.064 |
| ACUCCA | 2.056 ± 0.0064 | 2.04 ± 0.054 |
| GCUCGC | 2.02 ± 0.027 | 2.0264 ± 0.00071 |
| GCUCGA | 2.039 ± 0.0067 | 2.02 ± 0.065 |
| GCUCGG | 2.034 ± 0.016 | 2.03 ± 0.026 |
| AGAAAG | 1.901 ± 0.0062 | 2.01 ± 0.022 |
| AGAAAA | 1.984 ± 0.0076 | 2 ± 0.034 |
| AGAAAC | 2.0013 ± 0.00088 | 2.01 ± 0.026 |
| GCUUUU | 2.01 ± 0.047 | 2.02 ± 0.035 |
| GCUUUG | 1.995 ± 0.015 | 2.02 ± 0.053 |
| GCUUUC | 2.0144 ± 0.0002 | 2.01 ± 0.029 |
